Results reported in patent publication US20210277110A1 (Janssen / Centocor, published 2021).
Changes are numbered by the printed parent chain.

T1: Extracellular domain of cyno PD1 (cPD1-ECD) (Macaca fascicularis (cynomolgus))
T1 construct: Expressed with a hexahistidine tag or as Fc fusion; also called cynoPD1-ECD; cynoPD-1-ECD
T1 chain: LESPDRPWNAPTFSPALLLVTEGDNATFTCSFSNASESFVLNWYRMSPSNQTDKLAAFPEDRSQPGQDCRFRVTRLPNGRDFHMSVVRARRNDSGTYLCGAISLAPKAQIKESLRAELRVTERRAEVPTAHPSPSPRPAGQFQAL

B1: PD1B244 (antibody, human IgG4 S228P, kappa, V domains shown)
VH: QVQLVQSGAEVKKPGSSVKVSCKASGGTFSSYAISWVRQAPGQGLEWMGGIIPIFDTANYAQKFQGRVTITADESTSTAYMELSSLRSEDTAVYYCARPGLAAAYDTGSLDYWGQGTLVTVSS
VL: EIVLTQSPATLSLSPGERATLSCRASQSVRSYLAWYQQKPGQAPRLLIYDASNRATGIPARFSGSGSGTDFTLTISSLEPEDFAVYYCQQRNYWPLTFGQGTKVEIKR
B2: PD1B243 (antibody, human IgG4 S228P, kappa, V domains shown)
VH: EVQLVESGGGLVQPGGSLRLSCAASGFAFSRYDMSWVRQAPGKGLESVAYISGGGANTYYLDNVKGRFTISRDNAKNSLYLQMNSLRAEDTAVYYCASPYLSYFDVWGQGTLVTVSS
VL: EIVMTQSPATLSVSPGERATLSCRASQSLSDYLHWYQQKPGQAPRLLIKSASQSISGIPARFSGSGSGTEFTLTISSLQSEDFAVYYCQNGHSFPYTFGQGTKLEIKR
B3: PD1B200 (antibody, V domains shown)
VH: QVQLVQSGAEVKKPGSSVKVSCKASGGTFSDYVISWVRQAPGQGLEWMGGIIPIYGTANYAQKFQGRVTITADESTSTAYMELSSLRSEDTAVYYCARGTLDRTGHLDYWGQGTLVTVSS
VL: EIVLTQSPATLSLSPGERATLSCRASQSVDNYLAWYQQKPGQAPRLLIHDASNRATGIPARFSGSGSGTDFTLTISSLEPEDFAVYYCQQRSAWPLTFGQGTKVEIK
notes: also called PD1H164/PD1L168
B4: PD1B199 (antibody, V domains shown)
VH: B3 VH
VL: B3 VL with D30S, N31S, N53T, S92N, A93Y
notes: also called PD1H164/PD1L86
B5: PD1B114 (antibody, human IgG2, kappa, V domains shown)
VH: B1 VH with D56G, S109N
VL: B1 VL with R30S, N92S, Y93N
notes: IgG2sigma/kappa; also called PD1H24/PH9L3
B6: PD1B160 (antibody, human IgG2, kappa, V domains shown)
VH: B1 VH with S109N
VL: B1 VL with R30D, Y49K, N53D, N92G, Y93N
notes: IgG2sigma/kappa; VH 42, VL 51; also called PD1H131/PD1L101
B7: PD1B184 (antibody, human IgG2, kappa, V domains shown)
VH: B1 VH with D56G
VL: B1 VL with S31N, Y49H
notes: IgG2sigma/kappa; VH 43, VL 50; also called PD1H3/PD1L128
B8: PD1B183 (antibody, human IgG2, kappa, V domains shown)
VH: B1 VH with D56G
VL: B1 VL with R30S, Y49K, N92G
notes: IgG2sigma/kappa; VH 43, VL 54; also called PD1H3/PD1L109
B9: PD1B185 (antibody, human IgG2, kappa, V domains shown)
VH: B1 VH with D56G
VL: B1 VL with S31N, N53D, N92W, Y93N
notes: IgG2sigma/kappa; VH 43, VL 55; also called PD1H3/PD1L132
B10: PD1B192 (antibody, human IgG2, kappa, V domains shown)
VH: B1 VH with D56G
VL: B1 VL with R30D, Y49H
notes: IgG2sigma/kappa; VH 43, VL 57; also called PD1H3/PD1L133
B11: PD1B177 (antibody, V domains shown)
VH: B3 VH
VL: B3 VL with D30S, N31S, H49Y, A93N
notes: Tested as IgG2sigma; also called PD1H164/PH9L3
B12: PD1B187 (antibody, V domains shown)
VH: B1 VH with D56G
VL: B3 VL with D30R, N31S, H49Y, S92N, A93Y
notes: Tested as IgG2sigma; also called PD1H3/PD1L148
B13: PD1B198 (antibody, V domains shown)
VH: B3 VH with S30K, D31S, S35H, Y55F, T100Y, L101V, D102R, R103A, H106M
VL: B3 VL with D30S, N31S, H49E, N53S, S92A, A93E
notes: also called PD1H163/PD1L187
B14: PD1B197 (antibody, V domains shown)
VH: B3 VH with S30K, D31S, S35H, Y55F, T100Y, L101V, D102R, R103A, H106M
VL: B3 VL with D30S, H49Y, S92A, A93Y
notes: also called PD1H163/PD1L185
B15: PD1B194 (antibody, V domains shown)
VH: B1 VH
VL: B3 VL with D30R, N31S, H49Y, N53Y, S92D, A93Y
notes: also called PD1H170/PD1L71

These binders were tested against T2, Full length human PD1 (huPD1) on cells (human, UniProt Q15116 25-288) (assay: cell-based or functional assay).
T2 sequence (Q15116 25-288 limits assumed): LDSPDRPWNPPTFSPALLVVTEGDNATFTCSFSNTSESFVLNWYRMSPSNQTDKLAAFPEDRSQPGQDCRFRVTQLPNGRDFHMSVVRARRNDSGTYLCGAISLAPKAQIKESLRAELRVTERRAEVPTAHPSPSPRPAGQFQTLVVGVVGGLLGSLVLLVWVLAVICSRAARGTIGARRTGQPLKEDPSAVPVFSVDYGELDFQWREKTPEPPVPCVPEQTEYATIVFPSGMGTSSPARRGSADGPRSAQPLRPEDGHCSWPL

Row | Binder | CMV EC50, nM (IFN-γ induction) [nM] | MLR EC50, nM (IFN-γ induction) [nM]
1 | B1 | 0.03 | 0.08
2 | B2 | 0.02 | 0.07
3 | B3 | 3.81 | –
4 | B4 | – | 0.63

What follows are binders tested against T2, Full length human PD1 (huPD1) on cells (assay: flow cytometry, PHA-stimulated Jurkat cells).
Procedure: Jurkat cells were stimulated overnight with 20 ng/ml of PHA, harvested, washed, and checked for viability. The cells were then incubated at 6-10° C. for 45-60 minutes with various concentrations of test antibodies, washed and incubated at 6-10° C. for 45-60 minutes with FITC-labeled goat anti-human IgG. The cells were washed and fixed with BD Cytofix, refrigerated overnight and analyzed on a MACSQuant flow cytometer. The percentage of PD-1 positive cells at each antibody concentration was plotted vs log of the antibody concentration and EC₅₀ values were generated in Prism.

Row | Binder | EC50 [µg/mL]
5 | B5 | 0.47
6 | B6 | 0.08
7 | B7 | 0.08
8 | B8 | 0.08
9 | B9 | 0.09
10 | B10 | 0.06
11 | B11 | 0.05
12 | B12 | 0.09

What follows are binders tested against T3, Extracellular domain of human PD1 (huPD1-ECD) (human, UniProt Q15116 25-169, biotinylated in the ligand inhibition assay (sites not given)) (assay: SPR ProteOn, captured mAb, huPD1-ECD analyte).
T3 construct: Expressed with a hexahistidine tag or as Fc fusion; also called biotinylated PD-1
T3 sequence (Q15116 25-169 limits assumed): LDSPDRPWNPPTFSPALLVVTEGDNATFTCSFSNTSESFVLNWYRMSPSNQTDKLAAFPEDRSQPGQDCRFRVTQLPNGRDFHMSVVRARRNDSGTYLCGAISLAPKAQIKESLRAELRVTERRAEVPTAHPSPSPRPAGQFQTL

Row | Binder | Kd [nM] | koff [s⁻¹] | kon [M⁻¹ s⁻¹]
13 | B5 | 54.1 | 0.0279 | 517000
14 | B6 | 6.87 | 0.00371 | 540000
15 | B7 | 11.4 | 0.00509 | 445000
16 | B8 | 16 | 0.00844 | 527000
17 | B9 | 13.1 | 0.00765 | 585000
18 | B10 | – | 0.0117 | 541000
19 | B11 | 5 | 0.00257 | 515000
20 | B12 | 5.2 | 0.00278 | 535000

Biological target: T3, Extracellular domain of human PD1 …
Assay: SPR ProteOn, captured mAb, huPD1-ECD analyte
Remark: another data set of the same source
Procedure: (§1) Affinity measurements using Surface Plasmon Resonance (SPR) were performed using a ProteOn XPR36 system. A biosensor surface was prepared by coupling a mixture of anti-IgG Fc modified alginate polymer layer surface of a GLC chip using the manufacturer instructions for amine-coupling chemistry. […] The collected data were processed and fitted to a Langmuir 1:1 binding model. The result for each mAb was reported in the format of kₒₙ (On-rate), koff (Off-rate) and KD (equilibrium dissociation constant).
(§2) STDEV were calculated for 3 or more replicates generated for human and cyno proteins. If less than 3 replicates were calculated, RANGE is indicated. RANGE is defined as the low and high values for the replicates tested. For samples without RANGE or STDEV, only one experiment was performed

Row | Binder | Kd [nM] | koff [s⁻¹] | kon [M⁻¹ s⁻¹]
21 | B13 | 10.4 | 0.00934 | 895000
22 | B3 | 1.17 | 0.00122 | 1.05e+06
23 | B4 | 0.6 | 0.000564 | 933000
24 | B14 | 4.9 | 0.00324 | 658000
25 | B15 | 1.07 | 0.00096 | 897000

Biological target: T1, Extracellular domain of cyno PD1 …
Assay: SPR ProteOn, cynoPD1-ECD; RANGE low replicate
Procedure: as §1
(§3) STDEV were calculated for 3 or more replicates generated for human and cyno proteins. If less than 3 replicates were calculated, RANGE was indicated. RANGE is defined as the low and high values for the replicates tested. For samples in the Table 10 or Table 11 without value indicated in RANGE or STDEV, only one experiment was performed.

Row | Binder | Kd [nM] | koff [s⁻¹] | kon [M⁻¹ s⁻¹]
26 | B6 | 5.1 | 0.00163 | 316000
27 | B7 | 9.5 | 0.00255 | 208000
28 | B8 | 23.9 | 0.00801 | 304000
29 | B9 | 27.5 | 0.00938 | 280000
30 | B10 | 15 | 0.00486 | 290000
31 | B11 | 6.1 | 0.00184 | 280000
32 | B12 | 3.5 | 0.00128 | 220000

Biological target: T1, Extracellular domain of cyno PD1 …
Assay: SPR ProteOn, captured mAb, cynoPD1-ECD analyte
Procedure: as §1, §3

Row | Binder | Kd [nM] | koff [s⁻¹] | kon [M⁻¹ s⁻¹]
33 | B5 | 81.5 | 0.0239 | 294000
34 | B6 | 5.23 | 0.00166 | 317000
35 | B7 | 11.5 | 0.00274 | 238000
36 | B8 | 26.3 | 0.00839 | 320000
37 | B9 | 30.5 | 0.00947 | 311000
38 | B10 | 16.4 | 0.00504 | 307000
39 | B11 | 6.47 | 0.00189 | 292000
40 | B12 | 5.32 | 0.00157 | 294000

Biological target: T1, Extracellular domain of cyno PD1 …
Assay: SPR ProteOn, cynoPD1-ECD; RANGE high replicate
Procedure: as §1, §3

Row | Binder | Kd [nM] | koff [s⁻¹] | kon [M⁻¹ s⁻¹]
41 | B6 | 5.3 | 0.00168 | 317000
42 | B7 | 14.1 | – | –
43 | B8 | 28.8 | – | –
44 | B9 | 34.1 | 0.00955 | –
45 | B10 | 18 | – | –
46 | B11 | 6.9 | – | –
47 | B12 | 8.4 | – | –

Biological target: T1, Extracellular domain of cyno PD1 …
Assay: SPR ProteOn, captured mAb, cynoPD1-ECD analyte
Remark: another data set of the same source
Procedure: as §1, §2

Row | Binder | Kd [nM] | koff [s⁻¹] | kon [M⁻¹ s⁻¹]
48 | B13 | 11.2 | 0.00416 | 372000
49 | B3 | 1.11 | 0.000422 | 380000
50 | B4 | 0.52 | 0.000177 | 340000
51 | B14 | 4.6 | 0.00126 | 275000
52 | B15 | 0.6 | 0.000193 | 322000

The binders below were run against T3, Extracellular domain of human PD1 … (assay: MSD ligand inhibition, competitor coated cynoPDL1-ECD).
Procedure: The ligand inhibition assay design was MSD (Mescoscale Discovery) based. A MSD plate was directly coated with ligand (cynoPDL1-ECD, huPDL1-ECD or huPDL2-ECD) and incubated overnight at 4° C. The following day, the coating solution was removed and the plate was blocked. […] Depending on the panel of antibodies to be tested, the antibodies were tested as titrations or at a fixed concentration. […] The mAbs that were positive for inhibition of ligand binding at one concentration were also tested in dose responses for inhibition of various PD-1 ligands.
Select Fabs were cloned as IgG2sigma isotype and characterized for their Jurkat cell binding and cynomolgus PD-L1 ligand inhibition at concentrations 1 μg/ml and 10 μg/ml.

Row | Binder | percentage ligand not blocked at 1 µg/ml [%] | percentage ligand not blocked at 10 µg/ml [%]
53 | B5 | 8 | 13
54 | B6 | 4 | 3
55 | B7 | 4 | 4
56 | B8 | 5 | 5
57 | B9 | 8 | 5
58 | B10 | 5 | 5
59 | B11 | 7 | 8
60 | B12 | 7 | 5

Biological target: T1, Extracellular domain of cyno PD1 …
Assay: SPR ProteOn, cynoPD1-ECD; RANGE high replicate; RANGE high replicate
Procedure: as §1, §3

Row | Binder | koff [s⁻¹] | kon [M⁻¹ s⁻¹]
61 | B7 | 0.00292 | 268000
62 | B8 | 0.00876 | 337000
63 | B9 | – | 343000
64 | B10 | 0.00522 | 324000
65 | B11 | 0.00193 | 304000
66 | B12 | 0.00185 | 370000
